The values below come from PMC3807529 (Biochemistry, 2013).

For assay [1], the target named is T1, ataxin-3 fragment containing all three UIM sequences (residues 194-361, UIM_123) (human, UniProt P54252 194-361). As to the kind of experiment: NMR titration.
Assay [2] has as its target T1, ataxin-3 fragment containing all three …. The experiment in a line: NMR titration. The source holds these as a separate data set.

T1 sequence (P54252 194-361): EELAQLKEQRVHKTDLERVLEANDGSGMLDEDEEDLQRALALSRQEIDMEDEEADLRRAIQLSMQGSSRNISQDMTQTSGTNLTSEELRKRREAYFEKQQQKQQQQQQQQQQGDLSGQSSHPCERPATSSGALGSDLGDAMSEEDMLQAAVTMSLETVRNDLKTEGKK

B1: human parkin ubiquitin-like domain (residues 1-77) (domain or fragment, UniProt O60260 1-77, looked up)
chain: MIVFVRFNSSHGFPVEVDSDTSIFQLKEVVAKRQGVPADQLRVIFAGKELRNDWTVQNCDLDQQSIVHIVQRPWRKG
A word on the Kd: it is a measure of binding affinity in units of concentration. In turn, B1 gave a Kd in assay [1] of 236 ± 14 µM. In assay [2], the “KD of each individual UIM (UIM1, UIM2, UIM3) in UIM_123” value was greater than 1000 µM.
